Experimental data taken from patent publication US20060240015A1 (Kyowa Kirin, published 2006).

Key:
[1] = target: T1, human insulin-like growth factor-I (human, UniProt P05019 49-118); test: SPR (Biacore 2000)
T1 construct: mature; In the ELISAs it was coated as a conjugate with methylated BSA; in Biacore it was amine-coupled to a CM-5 chip; also called hIGF-I; IGF-I

[2] = target: T2, human insulin-like growth factor-II (human, UniProt P01344 25-91); test: SPR (Biacore 2000)
T2 construct: also called hIGF-II; IGF-II

[3] = target: T1, human insulin-like growth factor-I; test: SPR (Biacore 2000), hIGF-I amine-coupled on CM-5, antibody as analyte, 25 C
Method: (§1) For diluting samples and as reaction buffers in measurement, HBS-EP (10 mM HEPES, 150 mM NaCl, 3 mM EDTA, 0.005% Tween 20 pH 7.4) (manufactured by Biacore) was used.
(§2) Using an amine coupling kit (manufactured by Biacore), recombinant hIGF-I (manufactured by Fujisawa Pharmaceutical Co., Ltd.) and hIGF-II (manufactured by R & D) were immobilized at 18.5 pg/mm² or 26.7 pg/mm², respectively, on sensor tip CM-5 (manufactured by Biacore). After various antibodies which were diluted 5 steps in 2-fold serial dilutions as analytes added at a flow of 5 μl/minute for 4 minutes to observe a binding reaction, the dissociation reaction was subsequently observed over 5 minutes. After the dissociation reaction, 5 μl of 30 mM hydrochloric acid was added once, to regenerate the sensor chip surface. The reaction was done at 25° C. Based on the reaction curves at various concentrations, the binding constant Kass and dissociation constant Kdiss were calculated, to calculate the binding constants KA (M⁻¹) of these various antibodies.

[4] = target: T2, human insulin-like growth factor-II; test: SPR (Biacore 2000), hIGF-II amine-coupled on CM-5, antibody as analyte, 25 C
Method: as §1, §2

[5] = target: T1, human insulin-like growth factor-I; test: binding ELISA on coated mBSA-hIGF-I
Method: A conjugate of hIGF-I (manufactured by Fujisawa Co., Ltd.) with methylated BSA (manufactured by SIGMA) was prepared and used as an antigen to be immobilized on an ELISA plate. That is, methylated BSA dissolved in distilled water was mixed with hIGF to a ratio of methylated BSA:hIGF-I=1:8 (weight ratio) at 4° C. The resulting mixture was agitated with a vortex mixer for 10 seconds, to obtain a conjugate of hIGF-I with methylated BSA (hereinafter referred to as mBSA-hIGF-I).
The above mBSA-hIGF-I was dispensed at 50 μl/well on a 96-well ELISA plate (manufactured by Greiner) to give a hIGF-I concentration of 20 ng/ml and then left overnight at 4° C. for immobilization. After washing with PBS, PBS containing 1% BSA (hereinafter referred to as BSA-PBS) was dispensed in 100 μl/well to react at room temperature for 1 hour to carry out blocking of the remaining active groups. Discarding BSA-PBS, the culture supernatant of each of the various transformants or each of various purified hIGF CDR-grafted antibodies was dispensed at 50 μl/well to react at room temperature for 2 hours. After the reaction, each well was washed with PBS containing 0.05% Tween 20 (hereinafter referred to as Tween-PBS). Then, HRP-labeled anti-human IgG antibody (manufactured by American Qualex) in 2000-fold dilution was dispensed at 50 μl/well as a secondary antibody to react at room temperature for 1 hour.

T2 sequence (P01344 25-91 limits assumed): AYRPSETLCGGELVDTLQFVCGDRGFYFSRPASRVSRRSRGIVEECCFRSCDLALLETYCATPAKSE
T1 sequence (P05019 49-118): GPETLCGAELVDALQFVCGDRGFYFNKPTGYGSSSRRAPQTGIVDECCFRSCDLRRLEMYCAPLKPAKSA

| Binder | KA relative to KM3002 (fold) [1] | KA relative to KM3002 (fold) [2] | Ka [3] | Ka [4] | binding activity relative to KM3002 (fold) [5] | KA relative to CamHV0/LV0 (fold) [1] | KA relative to CamHV0/LV0 (fold) [2] | binding activity relative to CamHV0/LV0 (fold) [5] |
| --- | --- | --- | --- | --- | --- | --- | --- | --- |
| anti-hIGF CDR-grafted antibody CamHV0/LV0 (antibody, human IgG1, V domains shown, Human IgG1, kappa (pKANTEX93); also called CmaHV0/LV0) VH: QVQLVESGGGVVQPGRSLRLSCAASGFTFSNYYMTWVRQAPGKGLEWVAYISSGGGSTYYRDSVKGRFTISRDNSKNTLYLQMNSLRAEDTAVYYCAREDYGYWFAYWGQGTLVTVSS VL: DIVMTQSPDSLAVSLGERATINCRASSSVSYMHWYQQKPGQPPKLLIYGTSKLASGVPDRFSGSGSGTDFTLTISSLQAEDVAVYYCLQRSSYPPTFGQGTKVEIK | ~0.059 fold | ~0.167 fold | 1.7e+08 M⁻¹ | 3.9e+08 M⁻¹ | ~0.02 fold | – | – | – |
| anti-hIGF CDR-grafted antibody QAR/LV0 (antibody, human IgG1, V domains shown, Human IgG1, kappa (pKANTEX93); also called QAV/LV0) VH: EVQLVESGGGVVQPGRSLRLSCAASGFTFSNYYMTWVRQAPGKGLEWVAYISSGGGSTYYRDSVKGRFTISRDNSKNTLYLQMNSLRAEDTAVYYCTTEDYGYWFAYWGQGTLVTVSS VL: DIVMTQSPDSLAVSLGERATINCRASSSVSYMHWYQQKPGQPPKLLIYGTSKLASGVPDRFSGSGSGTDFTLTISSLQAEDVAVYYCLQRSSYPPTFGQGTKVEIK | – | – | 1.7e+08 M⁻¹ | 4.5e+08 M⁻¹ | – | – | – | – |
| anti-hIGF CDR-grafted antibody QGAR/PLLDFT (antibody, human IgG1, V domains shown, Human IgG1, kappa (pKANTEX93)) VH: EVQLVESGGGVVQPGRSLRLSCAASGFTFSNYYMTWVRQAPTKGLEWVAYISSGGGSTYYRDSVKGRFTISRDNSKNTLYLQMNSLRAEDTAVYYCTTEDYGYWFAYWGQGTLVTVSS VL: DIVMTQSPDSLAVSLGERATINCRASSSVSYMHWYQQKPGQSPKPWIYGTSKLASGVPDRFSGSGSGTSYSLTISSLQAEDVAVYYCLQRSSYPPTFGQGTKVEIK | – | – | 2.78e+09 M⁻¹ | 3.52e+09 M⁻¹ | – | – | – | – |
| anti-hIGF CDR-grafted antibody CamHV0/NYPLL3A11 (antibody, human IgG1, V domains shown) VH: QVQLVESGGGVVQPGRSLRLSCAASGFTFSNYYMTWVRQAPGKGLEWVAYISSGGGSTYYRDSVKGRFTISRDNSKNTLYLQMNSLRAEDTAVYYCAREDYGYWFAYWGQGTLVTVSS VL: DIVMTQSPDSLAVSLGERATITCRASSSVSYMHWFQQKPGQSPKPWIYGTSKLASGVPDRFSGSGSGTSYSLTISSLQAEDAATYYCLQRSSYPPTFGQGTKVEIK | – | – | 1.32e+09 M⁻¹ | 2.1e+09 M⁻¹ | ~0.5 fold | ~8 fold | ~5 fold | ~25 fold |
| anti-hIGF CDR-grafted antibody QGAR/PLDFT (antibody, human IgG1, V domains shown, Human IgG1, kappa (pKANTEX93)) VH: EVQLVESGGGVVQPGRSLRLSCAASGFTFSNYYMTWVRQAPTKGLEWVAYISSGGGSTYYRDSVKGRFTISRDNSKNTLYLQMNSLRAEDTAVYYCTTEDYGYWFAYWGQGTLVTVSS VL: DIVMTQSPDSLAVSLGERATINCRASSSVSYMHWYQQKPGQSPKPLIYGTSKLASGVPDRFSGSGSGTSYSLTISSLQAEDVAVYYCLQRSSYPPTFGQGTKVEIK | – | – | 2.31e+09 M⁻¹ | 4.02e+09 M⁻¹ | – | – | – | – |
| anti-hIGF CDR-grafted antibody QGAR/LV0 (antibody, human IgG1, V domains shown, Human IgG1, kappa (pKANTEX93)) VH: EVQLVESGGGVVQPGRSLRLSCAASGFTFSNYYMTWVRQAPTKGLEWVAYISSGGGSTYYRDSVKGRFTISRDNSKNTLYLQMNSLRAEDTAVYYCTTEDYGYWFAYWGQGTLVTVSS VL: DIVMTQSPDSLAVSLGERATINCRASSSVSYMHWYQQKPGQPPKLLIYGTSKLASGVPDRFSGSGSGTDFTLTISSLQAEDVAVYYCLQRSSYPPTFGQGTKVEIK | – | – | 7.8e+08 M⁻¹ | 1.75e+09 M⁻¹ | ~0.5 fold | ~5 fold | ~5 fold | ~25 fold |
| anti-hIGF human chimeric antibody KM3002 (antibody, human IgG1, V domains shown, V regions of KM1468 on human IgG1, kappa constant regions (vector pKANTEX93); also called anti-hIGF chimeric antibody KM3002) VH: EVHLVESGGGLVQPGRSLKLSCAASGFTFSNYYMTWVRQAPTKGLEWVAYISSGGGSTYYRDSVKGRFTISRDNAKSTLYLQMDSLRSEDTATYYCTTEDYGYWFAYWGQGTLVTVSS VL: EIVLTQSPTTMAASPGEKVTITCRASSSVSYMHWFQQKSGTSPKPWIYGTSKLASGVPDRFSGSGSGTSYSLTISSMEAEDAATYYCLQRSSYPPTFGAGTKLELK | – | – | 2.94e+09 M⁻¹ | 2.24e+09 M⁻¹ | – | – | – | – |
| anti-hIGF CDR-grafted antibody QGAR/NYPLL3A11 (antibody, V domains shown, Human IgG1, kappa (pKANTEX93)) VH: EVQLVESGGGVVQPGRSLRLSCAASGFTFSNYYMTWVRQAPTKGLEWVAYISSGGGSTYYRDSVKGRFTISRDNSKNTLYLQMNSLRAEDTAVYYCTTEDYGYWFAYWGQGTLVTVSS VL: DIVMTQSPDSLAVSLGERATITCRASSSVSYMHWFQQKPGQSPKPWIYGTSKLASGVPDRFSGSGSGTSYSLTISSLQAEDAATYYCLQRSSYPPTFGQGTKVEIK | – | – | 2.32e+09 M⁻¹ | 3.96e+09 M⁻¹ | – | ~14 fold | ~10 fold | – |
